# Results as given in a protein production outcome set (Wang et al. 2014).
# Assay: label from the status in PepcDB records
row,Sequence,protein production
1,MLDKGGGRGKLSSPERFREWTRKTMAKQDELVFVPLGGVGEIGMNLALYGYGPESKRQWIMVDCGVTFAGPDLPGVDLVLPDISYIAEQKKNLKGIIITHAHEDHYGAMNDLWPGLNVPVYASPFTAGMLEAKRAYEGTRAEIPVTIFKAGDRINVGPFEIEAVGVNHSIPEPMSLIIRTPLGNVIHTGDWKIDEAPSLGPLTDEARFRAIGEEGVLALMCDSTNALRDGVSPSEHEVSEGLRQIIESAEGRVAVTTFSSNVGRIRSIAQAAEAAGREVLLLGSSLKRVVNVSQDLGIMEGIKPFLAEDEYGYIPRDRVVVILTGSQGEPRAALAKLSRDEMRNVALASGDTVVFSSRAIPGNEKAIIEIKNGLIEQGVHIVTDNEALVHVSGHPRRNELLRMYEWTKPQILVPVHGEAAHLVAQKELAEQAGISQVPKVRNGNVLRLAPGPAEVINDVPHGRVFKDGNLVGDMDEMGISNRRKLSFAGHVAVNVVLDSRYDFLGDPDVVPFGLPEFDDEDEAMEDTLYDAVLGAVESIPRARRKDLALLRESVRRAVRAAANQSWGKKPIVTVFVTKV,failed
2,MLDLKSYREKELASYDLDVELFNEFNFSVYNVMPLRKAFLISTDKGEKILKKIDYTIEEFKFVLAAVNYIKNENEFNRIIDFNKTQSGEYYCIKNGDLYCVMDMIEGKECEFSNPVDLSISSFGLGQLHSASEGFRYSKIASKNICGKMIKGFKRKKEEVNFLKKMVNLYESLNEFDEIFIKNVDYYLEQIDKSIDIMNKSQYYKLCSEEDKIVLCHHDLAHHNIIIKDEEAYFIDFDYAIIDLKVHDLSNIISKAAKVFNYSIDNSKIIISNYCKSNTLSKNEMEVLFGMLSFPEDFYEIVKSYYTKRKDWSNEEFINKMKRKMANEENRVEFLKNFKEDLKI,failed
3,MLDLLVVAPHPDDGELGCGGTLARAKAEGLSTGILDLTRGEMGSKGTPEEREKEVAEASRILGLDFRGNLGFPDGGLADVPEQRLKLAQALRRLRPRVVFAPLEADRHPDHTAASRLAVAAVHLAGLRKAPLEGEPFRVERLFFYPGNHPFAPSFLVKISAFIDQWEAAVLAYRSQFTGEAASETVGPKGVEARKAMRRYWGNYLGVDYAEPFVSPLPVLYVPWSRA,not failed
4,MLDLQMKTAVIAVYKNAAFLEENVRLLQKEGFDVIVAADEPEESVREIIEKYSLRATVSERRRGKWRALNDAARIADGEELLFLDSDTIIKNLTGLNGADVVEVVKEVEGKGLLEKLVAVDYLVMAMCAKLASKFGSCLGVNGAAFLIKRRAFEELGGFRCKVNEDTELGIRAALGGYRFAVCGRAVTSVPKSIGEWFRQRERWSVGGTEVFVENLSAIIRKPRLWVPYLVLFYPAIFGLVISLFFTENYIAKLLYLVLPFLALISPKLASIAILAVYEMENVRNLVAGVASFVAWSGLILLASKKLGYRVDMKVLPIYYFIYSPLWTVICLISLVRVAVARVTGRKIELKDWVV,failed
5,MLDPFSEKAKELLKEFGSMNEFLQAIPSLVDIEEVMNRLKFAKESEISEDILNIEDIRDLASFYAQIGALAYSPYGLELELVKKANLRIYTERIRRRRKIRSDEIGIEVKIAVEFPENDIKTLEKVYGGLPEYIVSLREFLDLVPDEKLSSYYVYDGNVYLRKDDLLKVWSKAFERNVEKAVNIIYEIRDELPEFYRRLAGEIRSFAEKEFSDKFREVQAGELKHHLFPPCVKNALRGVPQGMRNYAITVLLTSFLSYARICPNPPRRNVKIRDCIKDMRVITEEILPIIIEAGNRCSPPLFEDQPNEIKNIWYHLGFGYTANPTLEDSGNSTWYFPPNCDKIKANAPQLCTPDKHCRYIRNPLTYYLRRLYLEEKRRAKHADEGSDKGGKERILQLEHHHHHH,failed
6,MLDSRQAVFFRFFFGVLPQSGRGQVMTELARTIVAGVGGADNIVSLMHCATRLRFKLKDESKAQAEVLKKTPGIIMVVESGGQFQVVIGNHVADVFLAVNSVAGLGEKAQQAPENDDKGNLLNRFVYVISGIFTPLIGLMAATGILKGMLALALTFQWTTEQSGTYLILFSASDALFWFFPIILGYTAGKRFSGNPFTAMVIGGALVHPLILTAFENGQKVDALGLDFLGIPVTLLNYSSSVIPIIFSAWLCSILERRLNAWLPSAIKNFFTPLLCLMVITPITFLLVGPLSTWISELIAAGYLWLYQAVPAFAGAVMGGFWQIFVMFGLHWGLIPLIINNFTVLGYDTMIPLLMPAIMAQVGAALGVFLCERDAQKKVVAGSAALTGLFGITEPAVYGVNLPRKYPFVIACISGALGATIIGYAQTKVYSFGLPGIFTFMQTIPSTGIDFTVWASVIGGVIAIGCAFVGTVMLHFITAKRQSAQVAQQEKTPEVITPEQGGICSPMTGEIVPLIHVADTTFASGLLGKGIAIMPSVGEVRSPVAGRIASLFATLHAIGIESDDGVEILIHVGIDTVKLDGKFFSAHVNVGDKVNTGDRLISFDIPAIREAGFDLTTPVLISNSDDFTDVLPHGTAQINAGEPLLSIIR,failed
7,MLDTVRQELNNFRSPLYRNSIYISLTSLVTAVAGFLFWSVAARLYPSSQVGVASALVSAINLTFTVSMLGLNFALIRFYPQYKERAVGSSLVLAVTASFFVSLVYGLIMGGSESFRGVFSAEFLAIFVTFSMVGTAYNILSTYAIAKRKAEHSFMQGLLFALRFVFLFFLVPLGVFGIVGSFGFGLTLGLIYGLIFIDDIKLSLDVEYLKESFRFSLGNYIASMANVAPNYLMPTLVLTMLGKEEAAYFYIAFAIGNLILFIPNAINTSFFVEGSHGLKDMKRTLKKALAFSYLYLAVATVFVWLFGGYVLELFRPEYVKGFGLLKLMVLGGFFVVPVNFSITILNIQKRVREVVGINLLKAALFLGLSYLLIPRFGIEGVGWGWIGAYSISVFMLFVRFFRKVF,failed
8,MLEACESKLDIIKNFVPSWFAAVMGTGILAVDSLLYSSYLPILKDVAVGLFYFNVLLFFIFLVPWVLRWIMFKDNALADLKHPVLSAFYPTIAVSCLVLGADFINIGHNMFWGGVFWTLGAIGMFLFSLIVPFYMFKSESIKLDHVNPGWYIPPVGLIVIPIAGSLIMPHLTGVWHELTVLINYFGWGAGFFLYLALLAVVIYRFILHHPLPSAMAPTVWINLGPIGAGIVALINMVNNSPFITIKEPFYIFSFIFWGFGLWWSLMAIIMTLYYVKKLKLPYAMSWWAFIFPLGAYVASSHLVYKIFKFSIIDYIGFGLYWLLFFFWAITLIKTTNKVYTGEVFKGH,failed
9,MLEDLIGKAYLESAEDRRRGDRSEEVEAIRKYIRSARRTVVPNWNAEKVDAINDVLRSFNLREAEHLQFNTNWADLTRMPAVTKALMALDISGADLVIARGRLGVPGSGSLLVIMDSRGRLLSAAMSPPHVIHSMEVREAVRSEMTHALERIGFKR,not failed
10,MLEEVERWLDARSWPAADRPVQHLLSAKHATGQSVSVVLPALDEEATVGDIVSVIRRELVLGVPLVDEIVVVDSGSSDRTSEVAAAAGARVVHRDAILPRIPAVPGKGEVLWRSLLVTGGDIVCFVDADLREFSADFVSGIVGPLLTDPDVHLVKAMYDRPLAGAAGQGGRVTELMARPLLNMHWPQLAGFVQPLGGEYAARRSLLERLPFPVGYGVELGMLVDALHLVGLDALAQVDVGVRVHRHQDGRALGRMAAAIYRTAQLRLARGHLVRPALTQFERGVDGFEPRTYAVDTEERPPMTEIAEYAARKVALEHHHHHH,not failed
11,MLEEYEKKRDFNKTSEPPARGEEKNSDKPVFVVQRHDATNLHYDFRLEMDGVLKSWAVPKEPPKSPGTRRLAIETEDHPLGYADFEGEIPEGQYGAGRVEIWDRGTFELLKRNEKEIIITLHGEELEGDYVLIKTKYGKEDKGWLFFKKKTGLEHHHHHH,not failed
12,MLEIPEDRCERHRLFKAIDDAFKAGDFDGLGKALGGSPGWFDERMPFELGLGHPLEYAIYWSPVGFISTLLDAGSDPNYQDHGGFPAIIAALSTDRADRLEVVRVLIEAGADPNMRGVNDWTPLHYSVGIRSAEAIHLLLAAGADPTLATRIDDYTTAFEEADKAGFEAGASLLRDAIARRGFNR,failed
13,MLELAAGFICLTSLLTYVNYRFIGLPPTIGVMVTALMFSLLLQGLSFLGYPGLEDRVQQLIGQIDFGDLLMNWMLSFLLFAGALHVNLADLKSYRWPIGLLATFGVLIATTVIGALAYWIFALFGWHVSPLYCLLFGALISPTDPIAVLGVLRTANASKPLKTTIVGESLFNDGTAVVVFTVLLGIAQLGETPTVGETALLFVHEAVGGVLFGGLIGYAVYLMIKSIEQYQIEVMLTLALVIGGSAMASELHVSGPIAMVVAGLIIGNLGRNLAMNDMTRRYMDGFWELLDDMLNALLFALIGMELLLLPFSWQHLIAASLLAVAILLSRFVTVAPAILLLRRWRKVPHGTIRILTWGGLRGGVSVALALALPNGPERDLLLSITYIVVLLSILFQGLTIGKLVNAVTREPQAKDPAGH,failed
14,MLELFMQPEAWVIFATLFALEVVLGVDNVVFISVLCERLPSHQRKLARNLGIGLAVLARIGLVFSITWIMQLTQPLFSVANHAVTGRDMIMILGGAFLLAKSLKELWSWLTHNETDHSTHVRTGLAVVLLQIVAVDAVFSMDSVITAVGLTSEVPLMVAAIIASALVMVMTAEKINNLVTRYPGFKTLALLFLVLLGGLLMAEGFAIHINKGYVYFAMAFGLALELCHIQLKNKQRRTIQRIRPMHDVAT,failed
15,MLEQSLRHYYQLVLVDPILPALRDRITPLSITWLSGIFGLLFIPFVLLDKPYIAISFLLLSGYLDTLDGSLARFQNRASDFGSAMDIVIDRIVEFSAVLALYLFDPQHRATLAILMLGSILLCITSFLVVGIFSNNTTQKSFYYSPGIMERAEAFLFFIFMTLFSSCFNFLAALFCFLVCLTALIRLFEFKKSVQAPS,failed
16,MLESVAAEPRRAAATDQAGTEARKQRLRRRLERLIGIAATEGNELVPLRNGDEIFPAMLRAIRTAEHTVDMMTFVYWRGQIARDFAAALAERARAGVRVRLLLDGFGAKQIEEGLLESMNSAGVEVAWFRKPLWLSPLKQNHRCHRKVLVVDEHTAFTGGVGIAEEWGGDARNPSEWRDTHVQVRGPAVDGIAAAFAQNWAECHDELFDERDRFTEHEQSGRATVQVVRGSASFGWQDMQTLVRVMLASAEERFRLSTAYFAPDSYFVDLLCATARRGVQVQILLPGPYTDQRACRLAGQHYYGTLLDAGVEIRQYQPTMLHTKIMTVDGVAALIGSSNFNRRSMEHDEEIMLAVLDETFTAALDRDFEEDRERAEAIVAARWKHRSPVQRLKEAIVAPVRRFL,failed
17,MLFFNVASLKYKHHESIQMIIDRIDHLVLTVSDISTTIRFYEEVLGFSAVTFKQNRKALIFGAQKINLHQQEMEFEPKASRPTPGSADLCFITSTPINDVVSEILQAGISIVEGPVERTGATGEIMSIYIRDPDGNLIEISQYVLEHHHHHH,not failed
18,MLFGDSVAIAFAQVSIHSRSKGHSAVAAAAYRSGARLYDDRIGRAYDFSKRDDVAFSEILLPDGTTDSFLERDYLWNEVERAENRSNSQLCKDFVLALPRELNLEQQIELAKRFARTHFVEKGLPADIAIHDHGDGNPHAHILIPTRRLENNRFSKYKARDLNPVFAKGFLVEQDYWGEQWREMQNEFFIENNLDLQVDANHLIAERHRGKHHNANAHYLLEENQLIQQARMELTRDNIDLVIDHLSTQYSVFTRRDVERLLFKTFQASDSPQEYLQFVERVLGHQDLVALGDNNKGEPSFTTRTHLMQEAQLLHDIEAMMVSKNHVVHQPIDSLAQQYRLSEEQYEAFRYITQSPDISVVIGRPGTGKSYLLKPLNEYYIQAGMEVIGAALSGKVAKALQAETGITSSTIKSLSYRLANDMMQLSDKHVLIIDEAGMVDFSSMGYLIKEAHKAGSKVVLIGDPDQLKPIQKGEIFRGIAARTGYIELENIKRQQDLGDRQASLNLAKGDIDKAIQHYQDKGAITITDTKLQAIEQVVADWKQDLESTNMADSIMLSYTRKAVNHLNDLAREALIVENKIGEENIVYQGLERSLKISTGERLLLRENNKVLGVRNGDTATVKEINVQQMKIQLDSGELLIIPKEYKALDYAYALTVHKSQGMTAKKVRVLIDSKYWDRNLSFVAMTRHKEQLNIYADKENHPTEQALKQTLSRSSTKDNVIDWPLDFAIRAGFDSDSLISRALNHIVGVGHKIKQAYNFIVNYEASLLKARHQERFQDIGQAIADAKQEALKVDTKEFESNDCKTSEQSFGILKKDFPQLVELETLIKRRQRMTGYFAEKTDKQIMALTQQLLTNKTFANQVKYQVPEFYQKLQSIDNKQKEKALLQNH,failed
